The values that follow are results of earlier work, collected in PMC4567495.

By Kd is commonly meant the free concentration of one partner at which half of the binding sites on the other are occupied at equilibrium, for simple one-to-one binding.

The target in data set [1] is cardiac troponin I switch peptide (Homo sapiens) (UniProt P19429). As to the kind of experiment: NMR.
For data set [2], the target named is cardiac troponin I switch peptide 147-163 (Homo sapiens) (UniProt P19429). As to the kind of experiment: NMR.

Sequence of cardiac troponin I switch peptide (Homo sapiens) (P19429 2-210): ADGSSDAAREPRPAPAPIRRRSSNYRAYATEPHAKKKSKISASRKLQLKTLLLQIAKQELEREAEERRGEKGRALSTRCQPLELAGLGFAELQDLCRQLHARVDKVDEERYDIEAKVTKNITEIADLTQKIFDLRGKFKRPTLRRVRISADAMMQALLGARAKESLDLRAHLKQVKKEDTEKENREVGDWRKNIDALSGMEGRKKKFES

As for “cardiac troponin C N-domain (from UniProt P63316)”, the Kd in data set [1] is more than 2000 µM; in data set [2], 150 µM.
